In publication PMC11551748:

Molecular target: Exportin-1 (XPO1), endogenous (UniProt O14980)
Assay: co-IP (GFP pulldown) and western blot, semi-quantification
Conditions: stable U2OS cell lines, parent: est. 0.60, read off a plot

Chain of UniProt O14980 (O14980 whole entry): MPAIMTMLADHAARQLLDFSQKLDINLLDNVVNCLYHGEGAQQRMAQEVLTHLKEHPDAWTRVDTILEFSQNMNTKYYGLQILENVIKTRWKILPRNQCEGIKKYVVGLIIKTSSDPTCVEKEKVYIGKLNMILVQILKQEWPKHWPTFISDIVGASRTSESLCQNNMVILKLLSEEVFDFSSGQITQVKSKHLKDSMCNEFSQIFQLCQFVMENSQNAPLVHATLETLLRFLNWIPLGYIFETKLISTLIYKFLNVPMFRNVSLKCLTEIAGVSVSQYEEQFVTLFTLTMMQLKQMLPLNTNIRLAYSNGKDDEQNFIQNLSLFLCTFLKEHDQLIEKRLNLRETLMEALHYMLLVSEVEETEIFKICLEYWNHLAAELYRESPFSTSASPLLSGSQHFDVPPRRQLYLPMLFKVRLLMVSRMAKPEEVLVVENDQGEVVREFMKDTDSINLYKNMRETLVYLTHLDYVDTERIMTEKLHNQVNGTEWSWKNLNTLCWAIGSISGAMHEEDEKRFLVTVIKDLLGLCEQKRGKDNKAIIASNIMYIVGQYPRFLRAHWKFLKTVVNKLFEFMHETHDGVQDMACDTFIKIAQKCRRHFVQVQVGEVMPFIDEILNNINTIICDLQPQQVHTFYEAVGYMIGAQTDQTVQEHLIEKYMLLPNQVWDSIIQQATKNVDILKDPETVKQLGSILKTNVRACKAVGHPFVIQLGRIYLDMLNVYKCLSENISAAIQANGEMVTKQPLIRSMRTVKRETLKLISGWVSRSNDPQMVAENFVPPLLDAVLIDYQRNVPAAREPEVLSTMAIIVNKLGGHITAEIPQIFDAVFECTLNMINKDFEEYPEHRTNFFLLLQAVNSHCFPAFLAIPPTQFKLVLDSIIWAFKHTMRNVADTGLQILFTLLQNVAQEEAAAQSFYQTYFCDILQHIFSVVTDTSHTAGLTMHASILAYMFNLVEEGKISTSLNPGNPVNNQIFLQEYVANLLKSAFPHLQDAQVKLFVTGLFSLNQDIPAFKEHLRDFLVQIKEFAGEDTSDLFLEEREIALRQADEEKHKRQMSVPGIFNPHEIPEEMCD

Substance | response (band intensity relative to WT -ETO)
TIRR-GFP WT (lentivirus-integrated, U2OS) (from UniProt Q9BRJ7) NES1 | 2.1
TIRR-GFP WT (lentivirus-integrated, U2OS) (from UniProt Q9BRJ7) NES3 | 3.2
TIRR-GFP WT (lentivirus-integrated, U2OS) (from UniProt Q9BRJ7) RBM | 0.9
TIRR-GFP WT (lentivirus-integrated, U2OS) (from UniProt Q9BRJ7) NES2 | 0.3
TIRR-GFP WT (lentivirus-integrated, U2OS) (from UniProt Q9BRJ7) K10E | 0.27
TIRR-GFP WT (lentivirus-integrated, U2OS) (from UniProt Q9BRJ7) NES4 | 1.3
